B1: ZNF263 (parent)
chain: QPKKLHLCPLCGKNFSNNSNLIRH
B2: ZNF449 (parent)
chain: HKKKSPGEKPHRCPQCGKCFARKS

Variants of: B1
Test: protein stability index of a GFP-peptide fusion (GPS, HEK-293T) (PSI 1-6); higher = more stable
Conditions: c terminus: a fixed tail appended
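Also: lentivirally expressed fusions sorted by FACS into six bins by GFP to DsRed ratio, PSI derived from sequencing read proportions per bin multiplied by bin number.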

Compared with L21W, L21V is higher in protein stability index: 2.44 for the first, 2.85 for the second.

First: L21K
Second: L21M
The protein stability index of the first is higher: 2.87 for the first, 2.48 for the second.

First: L21F
Second: L21D
The protein stability index of the first is lower: 2.32 for the first, 2.72 for the second.

First: P2K
Second: P2W
The protein stability index of the first is higher: 2.17 for the first, 2.14 for the second.

First: P2A
Second: P2Y
The protein stability index of the first is higher: 2.42 for the first, 1.89 for the second.

First: P2R
Second: P2G
The protein stability index of the first is lower: 2.06 for the first, 2.22 for the second.

Going from P2E to F15S, the protein stability index falls from 2.59 to 2.19.

First: F15K
Second: F15D
The protein stability index of the first is lower: 2.06 for the first, 2.56 for the second.

Going from F15Y to F15G, the protein stability index falls from 2.46 to 1.8.

Compared with F15P, N20M is higher in protein stability index: 2.22 for the first, 2.54 for the second.

Compared with N20E, N20I is lower in protein stability index: 3.42 for the first, 1.94 for the second.

Going from N20S to N20F, the protein stability index falls from 3.09 to 1.57.

Compared with N20R, N20D is higher in protein stability index: 2.01 for the first, 4 for the second.

Going from N20P to L5S, the protein stability index falls from 2.49 to 2.39.

First: L5K
Second: L5M
The protein stability index of the first is lower: 2.67 for the first, 2.71 for the second.

Going from L5I to L5W, the protein stability index rises from 2.64 to 2.74.

Going from L5F to L5T, the protein stability index falls from 1.81 to 1.71.

Compared with L5G, L5R is lower in protein stability index: 2.54 for the first, 2.37 for the second.

First: G12V
Second: G12L
The protein stability index of the first is higher: 2.36 for the first, 2.07 for the second.

First: G12D
Second: H24T
The protein stability index of the first is lower: 2.11 for the first, 2.35 for the second.

Compared with H24C, H24F is higher in protein stability index: 1.84 for the first, 2.44 for the second.

Going from H24N to H24W, the protein stability index rises from 2.22 to 2.38.

Going from H24Y to I22C, the protein stability index rises from 2.61 to 4.04.

First: I22A
Second: I22G
The protein stability index of the first is higher: 2.8 for the first, 1.98 for the second.

Compared with I22D, I22N is lower in protein stability index: 2.86 for the first, 2.5 for the second.

First: I22E
Second: K13Y
The protein stability index of the first is higher: 3.45 for the first, 2.91 for the second.

Going from K13G to K13I, the protein stability index falls from 2.24 to 1.89.

Compared with K13P, K13R is higher in protein stability index: 1.82 for the first, 2.53 for the second.

First: K13F
Second: L7S
The protein stability index of the first is higher: 2.51 for the first, 2.1 for the second.

Going from L7P to L7Y, the protein stability index rises from 2.07 to 3.02.

Going from L7I to L7A, the protein stability index falls from 3.56 to 2.69.

First: L7G
Second: L7V
The protein stability index of the first is lower: 2.08 for the first, 3.04 for the second.

Compared with L7F, L7H is lower in protein stability index: 2.78 for the first, 2.46 for the second.

Compared with L10V, L10I is lower in protein stability index: 2.96 for the first, 2.83 for the second.

Compared with L10Y, L10G is higher in protein stability index: 2.53 for the first, 2.87 for the second.

First: L10F
Second: L10P
The protein stability index of the first is higher: 3.03 for the first, 2.62 for the second.

Compared with L10E, L10T is lower in protein stability index: 3.47 for the first, 2.84 for the second.

First: H6C
Second: H6V
The protein stability index of the first is lower: 1.99 for the first, 2.12 for the second.

First: H6R
Second: H6I
The protein stability index of the first is higher: 2.32 for the first, 2.05 for the second.

First: H6T
Second: H6F
The protein stability index of the first is higher: 3.08 for the first, 2.44 for the second.

Going from H6D to H6L, the protein stability index falls from 2.95 to 2.19.

Compared with C8W, C8P is higher in protein stability index: 1.97 for the first, 2.82 for the second.

First: C8Y
Second: C8S
The protein stability index of the first is lower: 1.82 for the first, 2.41 for the second.

Compared with C8Q, C11W is lower in protein stability index: 2.71 for the first, 1.74 for the second.

First: C11H
Second: C11D
The protein stability index of the first is lower: 2.88 for the first, 3.58 for the second.

First: C11V
Second: C11N
The protein stability index of the first is lower: 2.48 for the first, 2.8 for the second.

Going from N18W to N18P, the protein stability index rises from 2.73 to 3.28.

First: N18T
Second: N18F
The protein stability index of the first is lower: 2.45 for the first, 2.76 for the second.

Going from N18I to N18G, the protein stability index falls from 2.33 to 1.8.

First: N18K
Second: N18C
The protein stability index of the first is lower: 2.31 for the first, 2.48 for the second.

First: N18V
Second: N18H
The protein stability index of the first is higher: 2.86 for the first, 2.82 for the second.

Going from S19C to S16G, the protein stability index rises from 3.3 to 3.42.

Compared with S16L, S16V is lower in protein stability index: 2.34 for the first, 2.05 for the second.

Compared with S16M, Q1K is lower in protein stability index: 2.96 for the first, 2.64 for the second.

First: Q1M
Second: Q1Y
The protein stability index of the first is higher: 2.6 for the first, 2.23 for the second.

Going from Q1T to Q1C, the protein stability index rises from 2.5 to 2.69.

First: Q1P
Second: Q1D
The protein stability index of the first is lower: 2.43 for the first, 3.09 for the second.

Compared with Q1N, Q1I is lower in protein stability index: 2.83 for the first, 2.61 for the second.

Compared with Q1G, P9L is lower in protein stability index: 2.33 for the first, 2.21 for the second.

First: P9S
Second: P9G
The protein stability index of the first is higher: 2.52 for the first, 2.26 for the second.

Going from P9F to P9R, the protein stability index rises from 1.93 to 2.25.

Going from K3Q to K3Y, the protein stability index falls from 2.52 to 2.05.

Compared with K3W, K3F is higher in protein stability index: 1.93 for the first, 2.83 for the second.

First: K3H
Second: K3V
The protein stability index of the first is higher: 2.82 for the first, 2.67 for the second.

Going from K3M to K3E, the protein stability index rises from 2.78 to 2.8.

Compared with K3C, K3G is higher in protein stability index: 2.32 for the first, 2.65 for the second.

Compared with K4T, K4S is higher in protein stability index: 2.75 for the first, 3.18 for the second.

Compared with K4F, K4W is higher in protein stability index: 2.17 for the first, 2.47 for the second.

Going from K4G to K4M, the protein stability index falls from 2.63 to 2.53.

Going from K4Q to K4N, the protein stability index falls from 3.03 to 2.92.

Compared with K4R, N14M is higher in protein stability index: 1.88 for the first, 2.83 for the second.

Going from N14V to N17K, the protein stability index falls from 3.04 to 2.28.

Compared with N17F, N17E is higher in protein stability index: 2.06 for the first, 2.33 for the second.

Compared with N17T, N17I is lower in protein stability index: 2.91 for the first, 2.25 for the second.

Compared with N17S, N17V is lower in protein stability index: 2.66 for the first, 2.18 for the second.

Going from R23F to R23N, the protein stability index rises from 2.42 to 2.96.

R23K gave a protein stability index of 3.19.

Variants of: B2
Test: as above
Conditions: c terminus: a fixed tail appended

Going from E8W to Q15Y, the protein stability index rises from 3.36 to 3.6.

Compared with C16T, K4L is higher in protein stability index: 3.71 for the first, 4.2 for the second.

Compared with R12H, R12W is lower in protein stability index: 3.59 for the first, 2.68 for the second.

Compared with K18L, H1A is higher in protein stability index: 3.13 for the first, 3.37 for the second.

Compared with F20P, P6R is higher in protein stability index: 1.49 for the first, 3.51 for the second.

Compared with S5V, P10Q is higher in protein stability index: 2.77 for the first, 3.09 for the second.

Going from C19D to P14Y, the protein stability index rises from 3.66 to 3.75.

From the supplement of paper PMC10567573
